Measured values taken from paper PMC7917804.

B1: FLAG-HA-SBP (FHS)-tagged TNRC6A-SD-WT, Q8NDV7-2 S1616A; S1691A (protein)
chain: PLHQPAMKSFLDNVMPHTTPELQKGPSPINAFSNFPIGLNSNLNVNMDMNSIKEPQSRLRKWTTVDSISVNTSLDQNSSKHGAISSGFRLEESPFVPYDFMNSSTSPASPPGSIGDGWPRAKSPNGSSSVNWPPEFRPGEPWKGYPNIDPETDPYVTPGSVINNLSINTVREVDHLRDRNSGSSSSLNTTLPSTSAWSSIRASNYNVPLSSTAQSTSARNSDSKLTWSPGSVTNTSLAHELWKVPLPPKNITAPSRPPPGLTGQKPPLSTWDNSPLRIGGGWGNSDARYTPGSSWGESSSGRITNWLVLKNLTPQIDGSTLRTLCMQHGPLITFHLNLPHGNALVRYSSKEEVVKAQKSLHMCVLGNTTILAEFASEEEISRFFAQSQSLTPAPGWQSLGSSQSRLGSLDCSHSFSSRTDLNHWNGAGLSGTNCGDLHGTSLWGTPHYSTSLWGPPSSSDPRGISSPAPINAFLSVDHLGGGGESM
B2: FLAG-HA-SBP (FHS)-tagged full-length TNRC6A, wild type, Q8NDV7-2 S1616A; S1691A (protein)
chain: MDADSASSSESERNITIMASGNTGGEKDGLRNSTGLGSQNKFVVGSSSNNVGHGSSTGPWGFSHGAIISTCQVSVDAPESKSESSNNRMNAWGTVSSSSNGGLNPSTLNSASNHGAWPVLENNGLALKGPVGSGSSGINIQCSTIGQMPNNQSINSKVSGGSTHGTWGSLQETCESEVSGTQKVSFSGQPQNITTEMTGPNNTTNFMTSSLPNSGSVQNNELPSSNTGAWRVSTMNHPQMQAPSGMNGTSLSHLSNGESKSGGSYGTTWGAYGSNYSGDKCSGPNGQANGDTVNATLMQPGVNGPMGTNFQVNTNKGGGVWESGAANSQSTSWGSGNGANSGGSRRGWGTPAQNTGTNLPSVEWNKLPSNQHSNDSANGNGKTFTNGWKSTEEEDQGSATSQTNEQSSVWAKTGGTVESDGSTESTGRLEEKGTGESQSRDRRKIDQHTLLQSIVNRTDLDPRVLSNSGWGQTPIKQNTAWDTETSPRGERKTDNGTEAWGSSATQTFNSGACIDKTSPNGNDTSSVSGWGDPKPALRWGDSKGSNCQGGWEDDSAATGMVKSNQWGNCKEEKAAWNDSQKNKQGWGDGQKSSQGWSVSASDNWGETSRNNHWGEANKKSSSGGSDSDRSVSGWNELGKTSSFTWGNNINPNNSSGWDESSKPTPSQGWGDPPKSNQSLGWGDSSKPVSSPDWNKQQDIVGSWGIPPATGKPPGTGWLGGPIPAPAKEEEPTGWEEPSPESIRRKMEIDDGTSAWGDPSKYNYKNVNMWNKNVPNGNSRSDQQAQVHQLLTPASAISNKEASSGSGWGEPWGEPSTPATTVDNGTSAWGKPIDSGPSWGEPIAAASSTSTWGSSSVGPQALSKSGPKSMQDGWCGDDMPLPGNRPTGWEEEEDVEIGMWNSNSSQELNSSLNWPPYTKKMSSKGLSGKKRRRERGMMKGGNKQEEAWINPFVKQFSNISFSRDSPEENVQSNKMDLSGGMLQDKRMEIDKHSLNIGDYNRTVGKGPGSRPQISKESSMERNPYFDKDGIVADESQNMQFMSSQSMKLPPSNSALPNQALGSIAGLGMQNLNSVRQNGNPSMFGVGNTAAQPRGMQQPPAQPLSSSQPNLRAQVPPPLLSPQVPVSLLKYAPNNGGLNPLFGPQQVAMLNQLSQLNQLSQISQLQRLLAQQQRAQSQRSVPSGNRPQQDQQGRPLSVQQQMMQQSRQLDPNLLVKQQTPPSQQQPLHQPAMKSFLDNVMPHTTPELQKGPSPINAFSNFPIGLNSNLNVNMDMNSIKEPQSRLRKWTTVDSISVNTSLDQNSSKHGAISSGFRLEESPFVPYDFMNSSTSPASPPGSIGDGWPRAKSPNGSSSVNWPPEFRPGEPWKGYPNIDPETDPYVTPGSVINNLSINTVREVDHLRDRNSGSSSSLNTTLPSTSAWSSIRASNYNVPLSSTAQSTSARNSDSKLTWSPGSVTNTSLAHELWKVPLPPKNITAPSRPPPGLTGQKPPLSTWDNSPLRIGGGWGNSDARYTPGSSWGESSSGRITNWLVLKNLTPQIDGSTLRTLCMQHGPLITFHLNLPHGNALVRYSSKEEVVKAQKSLHMCVLGNTTILAEFASEEEISRFFAQSQSLTPAPGWQSLGSSQSRLGSLDCSHSFSSRTDLNHWNGAGLSGTNCGDLHGTSLWGTPHYSTSLWGPPSSSDPRGISSPAPINAFLSVDHLGGGGESM

Biological target: poly(A)-binding protein (PABP), P11940
Sequence (P11940 whole entry): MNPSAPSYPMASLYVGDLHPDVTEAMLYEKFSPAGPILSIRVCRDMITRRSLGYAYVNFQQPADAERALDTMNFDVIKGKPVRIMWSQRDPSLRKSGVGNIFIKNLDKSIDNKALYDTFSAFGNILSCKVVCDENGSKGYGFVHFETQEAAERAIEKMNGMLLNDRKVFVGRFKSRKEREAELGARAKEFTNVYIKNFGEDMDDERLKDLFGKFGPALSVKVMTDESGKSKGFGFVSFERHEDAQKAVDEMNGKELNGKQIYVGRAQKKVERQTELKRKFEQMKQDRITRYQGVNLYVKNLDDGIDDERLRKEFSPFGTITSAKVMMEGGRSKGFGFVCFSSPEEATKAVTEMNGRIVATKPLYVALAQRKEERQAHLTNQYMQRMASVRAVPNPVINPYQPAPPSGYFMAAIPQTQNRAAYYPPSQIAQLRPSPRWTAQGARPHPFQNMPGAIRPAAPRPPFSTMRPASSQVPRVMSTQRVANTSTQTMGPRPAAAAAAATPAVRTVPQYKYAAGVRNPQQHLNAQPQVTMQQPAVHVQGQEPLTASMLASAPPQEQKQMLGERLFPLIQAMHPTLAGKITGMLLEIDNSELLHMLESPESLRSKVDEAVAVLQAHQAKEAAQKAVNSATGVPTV
Test: co-immunoprecipitation with anti-FLAG antibody, Western blot quantified with ImageJ
Conditions: chain shown with the change, HeLa cells, parent: est. 1.0, read off a plot

Binder	response (three independent experiments)	response (two independent experiments)
B1	0.81	–
B2	–	0.89
